Assay results as given in PMC9282385, “Rapid self-test of unprocessed viruses of SARS-CoV-2 and its variants in saliva by portable wireless graphene biosensor”.

B1: Aptamer-N (structured_DNA)
DNA: GCTGGATGTCGCTTACGACAATATTCCTTAGGGGCACCGCTACATTGACACATCCAGC
B2: Aptamer-S (structured_DNA)
DNA: CAGCACCGACCTTGTGCTTTGGGAGTGCTGGTCCAAGGGCGTTAATGGACA

Tests used:
[1] = molecular target: SARS-CoV nucleocapsid protein (SARS-CoV, UniProt P59595 1-422); assay: […], room temperature; pH not stated; conditions: protein: commercial; chain copies: 2
SARS-CoV nucleocapsid protein, sequence (P59595 whole entry): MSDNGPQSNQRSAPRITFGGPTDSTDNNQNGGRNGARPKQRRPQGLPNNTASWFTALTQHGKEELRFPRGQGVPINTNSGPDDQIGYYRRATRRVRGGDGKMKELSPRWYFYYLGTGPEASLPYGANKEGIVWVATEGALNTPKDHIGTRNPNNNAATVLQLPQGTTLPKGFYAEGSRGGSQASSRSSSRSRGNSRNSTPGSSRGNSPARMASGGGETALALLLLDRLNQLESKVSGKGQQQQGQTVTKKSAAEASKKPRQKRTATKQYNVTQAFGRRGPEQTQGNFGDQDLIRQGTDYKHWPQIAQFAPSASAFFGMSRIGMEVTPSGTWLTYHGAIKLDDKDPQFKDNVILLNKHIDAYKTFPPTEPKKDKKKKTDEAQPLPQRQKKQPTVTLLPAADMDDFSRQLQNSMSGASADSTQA

SARS-CoV-2 spike RBD = SARS-CoV-2 spike RBD (SARS-CoV-2, UniProt P0DTC2 319-541)
SARS-CoV spike RBD = SARS-CoV spike RBD (SARS-CoV, UniProt P59594 306-527); assay: […], room temperature; pH not stated; conditions: protein: commercial

Binder | binding result [1] | binding result (SARS-CoV-2 spike RBD) | binding result (SARS-CoV spike RBD)
B1 | binds |  | 
B2 |  | binds | binds
